From patent US20230066517A1, “Phospholipid Ether Conjugates as Cancer-Targeting Drug Vehicles” (Cellectar Biosciences, Inc., priority 2019, published 2023)
Starred links: 1 amine or outer side, 2 acyl side, 3 side chain; linkers in the order of their positions; H or OH if unused. Non-standard residues stand in square brackets, D forms with d. Residues, ends and D or L forms follow the SMILES beside them. *: point of attachment. X1 = C[N+](C)(C)CCOP(=O)([O-])OCCCCCCCCCCCCCCCCCCc1ccc(C(=O)*)cc1; Dolaproine = CO[C@@H]([C@@H]1CCCN1)[C@@H](C)C(=O)O; Dil = CC[C@H](C)[C@H](NC)[C@@H](CC(=O)O)OC; PABC = O=C(OCc1ccc(N[*:1])cc1)[*:2]; X2 = C[C@@H](N*)[C@@H](O)c1ccccc1; Cit = NC(=O)NCCC[C@H](N)C(=O)O; NMeV = CN[C@H](C(=O)O)C(C)C

Assays:
[1] = tested on: MCF-7 breast cancer cells; settings: FIG. 7
Description: The breast cancer cells were maintained in minimum essential medium supplemented with 10% FBS. All cells were maintained at 37° C. and 5% CO2. […] In vitro cytotoxicity was determined by Cell Titer-Glo® assay using MCF-7 breast cancer cells and Hs578T triple negative breast cancer cells.

[2] = tested on: normal human dermal fibroblasts (NHDF) cells; test: In vitro uptake of CLR2000045, LC/MS/MS; assay type: cell-based; settings: 1 µM
Description: (§1) In vitro uptake of CLR2000045 was assessed using MCF-7 breast cancer cells and normal human dermal fibroblasts (NHDF) cells and was measured via LC/MS/MS. The breast cancer cells were maintained in minimum essential medium supplemented with 10% FBS. All cells were maintained at 37° C. and 5% CO2. Cells were incubated with 1 µM of drug and reported values were the average of triplicate assessments. In vitro cytotoxicity was determined by Cell Titer-Glo® assay using MCF-7 breast cancer cells and Hs578T triple negative breast cancer cells.

[3] = tested on: MCF-7 breast cancer cells; test: In vitro uptake and release of CLR2000045, LC/MS/MS; assay type: cell-based
Description: as §1

[4] = tested on: HCC70 triple negative breast cancer (TNBC) xenografts; test: In vivo efficacy in TNBC xenograft model; parameters: species or system R2G2 mice
Description: In vivo efficacy was further assessed in R2G2 mice bearing HCC70 triple negative breast cancer (TNBC) xenografts. Three doses (1 mg/kg) given once, twice or 3 times per week for 2 weeks of CLR2000045 were assessed. CLR2000045 was administered systemically by injection of the tail vein. Each group contained 10 mice. Tumor volume was monitored for efficacy and body weight for tolerability. Survival was also monitored.
The study was initiated when group mean tumor volume reached ~200 mm^3 (Day 4). CLR2000045 was dosed IV at the following doses: 1 mg/kg on either day 5 and 12 or day 5, 8, 12 and 15 or day 5, 7, 9, 12, 14, and 16. […] Changes in body weight post treatment were measured in the (HCC70) mouse xenograft model (FIG. 11A and FIG. 11B).

[5] = Cyprotex Plasma Stability assay, mouse plasma; assay type: in vitro ADME
Description: To determine whether cytotoxic PDCs are tolerated in vivo, C57BL/6 mice were dosed in the following manner: PDC-SM2 was dosed on days 0, 3 and 7 at dose levels of 0.5 mg/kg, 1.0 mg/kg, or 2.0 mg/kg; Payload alone was dosed on day 0 only at 0.25 mg/kg, 0.4 mg/kg, or 0.5 mg/kg; vehicle was dosed on day 0, 3 and 7. […] Plasma stability was measured using Cyprotex’s Plasma Stability assay. The samples were at a concentration of 1 µM and were incubated at 0, 15, 30, 60 and 120 minutes. A positive control compound which undergoes degradation in plasma was used. The percent of the compound remaining at each incubation time point was measured.

[6] = tested on: Hs578T triple negative breast cancer cells; test: In vitro cytotoxicity, Cell Titer-Glo assay; assay type: cell-based; settings: FIG. 7
Description: as §1
Between 24 and 48 hours a steady state between uptake and release of the warhead was achieved (FIG. 6). […] Half maximal inhibitory concentration (IC50) was measured in the cell lines (TABLE 2). Plasma stability of CLR2000045 was also measured (TABLE 3).

[7] = Cyprotex Plasma Stability assay, human plasma; assay type: in vitro ADME
Description: To determine whether cytotoxic PDCs are tolerated in vivo, C57BL/6 mice were dosed in the following manner: PDC-SM2 was dosed on days 0, 3 and 7 at dose levels of 0.5 mg/kg, 1.0 mg/kg, or 2.0 mg/kg; Payload alone was dosed on day 0 only at 0.25 mg/kg, 0.4 mg/kg, or 0.5 mg/kg; vehicle was dosed on day 0, 3 and 7. […] Payload dose of 0.5 mg/kg was not tolerated, two mice died by day 4 following a single infusion and all mice were sacrificed on day 5 (FIG. 5). […] Plasma stability was measured using Cyprotex’s Plasma Stability assay. The samples were at a concentration of 1 µM and were incubated at 0, 15, 30, 60 and 120 minutes. A positive control compound which undergoes degradation in plasma was used. The percent of the compound remaining at each incubation time point was measured. […] Overall, PDCs offer a novel and unique approach to targeting small molecules to tumor cells.

HCT 116 xenografts = test: In vivo efficacy in colorectal cancer xenograft model; parameters: species or system athymic nude mice; settings: 10 mg/kg on day 1 and 4
Description: CLR180099 was administered intravenously (IV) to healthy C57BL/6 mice to determine the maximum tolerated dose (MTD) as compared to the FLV molecule alone. The vehicle used to administer CLR180099 was PBS in this case, however any pharmaceutically suitable vehicle may be used. Each group contained 5 mice. In vivo efficacy was assessed in athymic nude mice bearing HCT 116 xenografts. The mice were flank models which were developed by injecting the hind flank of the mice with about 1x10^6 of the cells resuspended in […] of 1.2% methylcellulose. The study was initiated when group mean tumor volume reached about 120 mm^3. Tumor volume was measured using calipers - measurements of the length, width, and depth of the tumor were used to calculate the tumor volume. Two doses (2 mg/kg given 2 times or 2 mg/kg given 3 times) of CLR180099 were assessed. Each group contained 10 mice. Tumor volume was monitored for efficacy and body weight for tolerability. Total conjugated CLR180099 and free FLV were determined via mass spectrometry.
The study was initiated when group mean tumor volume reached -120 mm^3 (Day 1). CLR180099 was dosed IV at 2 mg/kg on either day 1 and 4 or day 1, 3 and 5. Docetaxel was dosed at 10 mg/kg on day 1 and 4. […] Five mice per group were dosed at each dose level. Both PDCs were tolerated up to dose of 10 mg/kg with all mice alive and showing no end organ toxicities (TABLE 5). […]

[8] = Table 1, 1 µM, 0-120 minutes, read-out: Human T½

In the case of `C=C(c1ccc(OC)c(NC(=O)OCc2ccc(OP(=O)(O)OP(=O)(O)OCCNC(=O)c3ccc(CCCCCCCCCCCCCCCCCCOP(=O)([O-])OCC[N+](C)(C)C)cc3)cc2)c1)c1cc(C)nc2ccccc12` [CLR2000045], the IC50 [1] is reported as 0.076 µM, the “uptake in normal tissue” value [2] is reported as “minimal uptake” and the “uptake in tumor cells” value ([3]; 1 µM) is reported as “significant uptake”. The “release of the warhead” value ([3]; at each timepoint) was “approximately 50%”, the “uptake and release of payload, share of exposed drug” value ([3]; tumor cell lines) was 20-40% and the “eradication of the tumor” value ([4]; 1 mg/kg IV 3 times per week for 2 weeks (highest dose)) was roughly 100%. For the same compound, the “tumor volume compared to vehicle control” value ([4]; 1 mg/kg IV, 2 highest dose groups (2x and 3x per week for 2 weeks), p≤0.05 and p≤0.01) was “statistically significant reduction in tumor volume”, the “survival (Kaplan-Meier)” value ([4]; 1 mg/kg three times per week for 2 weeks, vs vehicle (p≤0.001) and 1 time per week (p≤0.05)) was “significant increase in survival” and the “survival (Kaplan-Meier)” value ([4]; 1 mg/kg twice a week for two weeks, vs vehicle (p≤0.05)) was “significant increase”. For the same compound, the “tolerability as measured by body weight loss” value ([4]; two highest doses) was “well tolerated”, the half-life at 1 µM ([5]; Table 3, read-out: Mouse t½) was greater than 6.67 h and the IC50 [6] was 0.051 µM. It also gave a half-life at 1 µM ([7]; Table 3, read-out: Human t½) greater than 6.67 h.

For `CC[C@H](C)[C@@H]([C@@H](CC(=O)N1CCC[C@H]1[C@H](OC)[C@@H](C)C(=O)N[C@H](C)[C@@H](O)c1ccccc1)OC)N(C)C(=O)[C@@H](NC(=O)[C@H](C(C)C)N(C)C(=O)OCc1ccc(NC(=O)[C@H](CCCNC(N)=O)NC(=O)[C@@H](NC(=O)c2ccc(CCCCCCCCCCCCCCCCCCOP(=O)([O-])OCC[N+](C)(C)C)cc2)C(C)C)cc1)C(C)C` [PDC-SM3] (X1-V[Cit][PABC][NMeV]V[Dil][Dolaproine]-X2), the half-life at 1 µM ([5]; Table 1, 1 µM, 0-120 minutes, read-out: Mouse T½) was greater than 6.67 h and the half-life at 1 µM [7, 8] was greater than 6.67 h.

Work on `CC(C)[N+](C)(CCOC(=O)C1c2ccccc2Oc2ccccc21)C(C)C` [Propantheline, reference compound] yielded a half-life at 1 µM ([5]; Table 3, read-out: Mouse t½) of 0.95 h, a half-life at 1 µM [7, 8] of 0.9 h and a half-life at 1 µM ([7]; Table 3, read-out: Human t½) of 1.28 h. It also gave a half-life at 1 µM ([7]; Table 4, read-out: Human t½) of 0.9 h.

For `CC(=O)O[C@@]12CO[C@@H]1C[C@H](O)[C@@]1(C)C(=O)[C@H](O)C3=C(C)[C@@H](OC(=O)[C@H](O)[C@@H](NC(=O)OC(C)(C)C)c4ccccc4)C[C@@](O)([C@@H](OC(=O)c4ccccc4)[C@H]21)C3(C)C` [docetaxel], the “deaths in treatment arm” value (HCT 116 xenografts) was “multiple deaths starting at day 18 and ending at day 26”.

In the case of `COC(=O)[C@@H]1[C@H](O)[C@]2(O)c3c(OC)cc(OCCCCNC(=O)OCC(C)(C)SSCCCCCCCCCCCCCCCCCCOP(=O)([O-])OCC[N+](C)(C)C)cc3O[C@]2(c2ccc(OC)cc2)[C@H]1c1ccccc1` [CLR1800095], the “stability in mouse plasma (in words)” value [5] is reported as “some instability”, the half-life at 1 µM ([5]; Table 4, read-out: Mouse t½) is reported as 3.32 h and the half-life at 1 µM ([7]; Table 4, read-out: Human t½) is reported as greater than 6.67 h.

In the case of `C=C(c1ccc(OC)c(NP(=O)(O)OP(=O)(O)OCCNC(=O)c2ccc(CCCCCCCCCCCCCCCCCCOP(=O)([O-])OCC[N+](C)(C)C)cc2)c1)c1cc(C)nc2ccccc12` [CLR2013], the half-life at 1 µM ([5]; Table 3, read-out: Mouse t½) is reported as 1.28 h and the half-life at 1 µM ([7]; Table 3, read-out: Human t½) is reported as greater than 6.67 h.
